Laboratory results as given in US20210388087A1 (Chugai, published 2021).

B1: dBBDu197 (antibody, human IgG1, V domains shown)
VH: QVQLVESGGGLVQPGRSLRLSCAASGFTFSNAWMHWVRQAPGKGLEWVAQIKDRSNAYAAYYAPSVKGRFTISRDDSKNSIYLQMNSLKTEDTAVYYCHYVHYASASTVLPAFGVDAWGQGTTVTVSS
VL: DIVMTQSPLSLPVTPGEPASISCRSSQSLVHSNRNTYLHWYQQKPGQAPRLLIYKVSNRFSGVPDRFSGSGSGTDFTLKISRVEAEDVGVYYCGQGTQVPYTFGQGTKLEIK
notes: human IgG1; GLS3000 light chain
B2: dBBDu174 (antibody, human IgG1, V domains shown)
VH: QVQLVESGGGLVQPGRSLRLSCAASGFTFSSAWMHWVRQAPGKGLEWVAQIKDRASAYNAYYAESVKGRFTISRDDSKNSIYLQMNSLKTEDTAVYYCRYVHYPSYVSFLPYYGVDAWGQGTTVTVSS
VL: DIVMTQSPLSLPVTPGEPASISCRSSQSLVHSNRNTYLHWYQQKPGQAPRLLIYKVSNRFSGVPDRFSGSGSGTDFTLKISRVEAEDVGVYYCGQGTQVPYTFGQGTKLEIK
notes: as for B1
B3: dBBDu173 (antibody, human IgG1, V domains shown)
VH: QVQLVESGGGLVQPGRSLRLSCAASGFTFSNAWMHWVRQAPGKGLEWVAQIKDKGNLYAAYYAPSVKGRFTISRDDSKNSIYLQMNSLKTEDTAVYYCHYVHYASAGGGLSAYGVDAWGQGTTVTVSS
VL: DIVMTQSPLSLPVTPGEPASISCRSSQSLVHSNRNTYLHWYQQKPGQAPRLLIYKVSNRFSGVPDRFSGSGSGTDFTLKISRVEAEDVGVYYCGQGTQVPYTFGQGTKLEIK
notes: as for B1
B4: dBBDu202 (antibody, human IgG1, V domains shown)
VH: QVQLVESGGGLVQPGRSLRLSCAASGFTFSNAWMHWVRQAPGKGLEWVAQIKDKGNAYAAYYAPSVKGRFTISRDDSKNSIYLQMNSLKTEDTAVYYCHYVHYSAASTVLPAFGVDAWGQGTTVTVSS
VL: DIVMTQSPLSLPVTPGEPASISCRSSQSLVHSNRNTYLHWYQQKPGQAPRLLIYKVSNRFSGVPDRFSGSGSGTDFTLKISRVEAEDVGVYYCGQGTQVPYTFGQGTKLEIK
notes: as for B1
B5: dBBDu193 (antibody, human IgG1, V domains shown)
VH: QVQLVESGGGLVQPGRSLRLSCAASGFTFSNAWMHWVRQAPGKGLEWVAQIKDRSNQYATYYAPSVKGRFTISRDDSKNSIYLQMNSLKTEDTAVYYCHYVHYSAASTLLPSFGVDAWGQGTTVTVSS
VL: DIVMTQSPLSLPVTPGEPASISCRSSQSLVHSNRNTYLHWYQQKPGQAPRLLIYKVSNRFSGVPDRFSGSGSGTDFTLKISRVEAEDVGVYYCGQGTQVPYTFGQGTKLEIK
notes: as for B1
B6: dBBDu186 (antibody, human IgG1, V domains shown)
VH: QVQLVESGGGLVQPGRSLRLSCAASGFTFSNAWMHWVRQAPGKGLEWVAQIKDRSNQYATYYAPSVKGRFTISRDDSKNSIYLQMNSLKTEDTAVYYCHYVHYAQASTVLPAFGVDAWGQGTTVTVSS
VL: DIVMTQSPLSLPVTPGEPASISCRSSQSLVHSNRNTYLHWYQQKPGQAPRLLIYKVSNRFSGVPDRFSGSGSGTDFTLKISRVEAEDVGVYYCGQGTQVPYTFGQGTKLEIK
notes: as for B1
B7: dBBDu181 (antibody, human IgG1, V domains shown)
VH: QVQLVESGGGLVQPGRSLRLSCAASGFTFSNAWMHWVRQAPGKGLEWIAQIKDRGNNYNNYYAPSVKGRFTISRDDSKNSIYLQMNSLKTEDTAVYYCHYVHYATASTLLGAYGVDAWGQGTTVTVSS
VL: DIVMTQSPLSLPVTPGEPASISCRSSQSLVHSNRNTYLHWYQQKPGQAPRLLIYKVSNRFSGVPDRFSGSGSGTDFTLKISRVEAEDVGVYYCGQGTQVPYTFGQGTKLEIK
notes: as for B1
B8: dBBDu196 (antibody, human IgG1, V domains shown)
VH: QVQLVESGGGLVQPGRSLRLSCAASGFTFSNAWMHWVRQAPGKGLEWVAQIKDRGNAYNAYYAESVKGRFTISRDDSKNSIYLQMNSLKTEDTAVYYCHYVHYASASTVLPAFGVDAWGQGTTVTVSS
VL: DIVMTQSPLSLPVTPGEPASISCRSSQSLVHSNRNTYLHWYQQKPGQAPRLLIYKVSNRFSGVPDRFSGSGSGTDFTLKISRVEAEDVGVYYCGQGTQVPYTFGQGTKLEIK
notes: as for B1
B9: dBBDu205 (antibody, human IgG1, V domains shown)
VH: QVQLVESGGGLVQPGRSLRLSCAASGFTFSNAWMHWVRQAPGKGLEWVAQIKDRSQLYAAYYAPSVKGRFTISRDDSKNSIYLQMNSLKTEDTAVYYCHYVHYASASTVLPAFGVDAWGQGTTVTVSS
VL: DIVMTQSPLSLPVTPGEPASISCRSSQSLVHSNRNTYLHWYQQKPGQAPRLLIYKVSNRFSGVPDRFSGSGSGTDFTLKISRVEAEDVGVYYCGQGTQVPYTFGQGTKLEIK
notes: as for B1
B10: dBBDu125 (antibody, human IgG1, V domains shown)
VH: QVQLVESGGGLVQPGRSLRLSCAASGFTFSIAWMHWVRQAPGKGLEWVAQIKDKVNGYTAYYAESVKGRFTISRDDSKNSIYLQMNSLKTEDTAVYYCRYVHYAAYYDVLGYGGVDAWGQGTTVTVSS
VL: DIVMTQSPLSLPVTPGEPASISCRSSQSLVHSNRNTYLHWYQQKPGQAPRLLIYKVSNRFSGVPDRFSGSGSGTDFTLKISRVEAEDVGVYYCGQGTQVPYTFGQGTKLEIK
notes: human IgG1; GLS3000 light chain; also called DXDU01_3 #019; DXDU01_3_#019
B11: dBBDu167 (antibody, human IgG1, V domains shown)
VH: QVQLVESGGGLVQPGRSLRLSCAASGFTFSNAWMHWVRQAPGKGLEWVAQIKDKGNLYAAYYAPSVKGRFTISRDDSKNSIYLQMNSLKTEDTAVYYCHYVHYASAGGGLPGFGVDAWGQGTTVTVSS
VL: DIVMTQSPLSLPVTPGEPASISCRSSQSLVHSNRNTYLHWYQQKPGQAPRLLIYKVSNRFSGVPDRFSGSGSGTDFTLKISRVEAEDVGVYYCGQGTQVPYTFGQGTKLEIK
notes: as for B1
B12: dBBDu222 (antibody, human IgG1, V domains shown)
VH: QVQLVESGGGLVQPGRSLRLSCAASGFTISSAWMHWVRQAPGKGLEWVAQIKDRANGYAAYYAPSVKGRFTISRDDSKNSIYLQMNSLKTEDTAVYYCRYVHYATAYDGFYGFGVDAWGQGTTVTVSS
VL: DIVMTQSPLSLPVTPGEPASISCRSSQSLVHSNRNTYLHWYQQKPGQAPRLLIYKVSNRFSGVPDRFSGSGSGTDFTLKISRVEAEDVGVYYCGQGTQVPYTFGQGTKLEIK
notes: as for B1
B13: dBBDu204 (antibody, human IgG1, V domains shown)
VH: QVQLVESGGGLVQPGRSLRLSCAASGFTFSNAWMHWVRQAPGKGLEWVAQIKDRSNNYATYYAESVKGRFTISRDDSKNSIYLQMNSLKTEDTAVYYCHYVHYASASTVLPAFGVDAWGQGTTVTVSS
VL: DIVMTQSPLSLPVTPGEPASISCRSSQSLVHSNRNTYLHWYQQKPGQAPRLLIYKVSNRFSGVPDRFSGSGSGTDFTLKISRVEAEDVGVYYCGQGTQVPYTFGQGTKLEIK
notes: as for B1
B14: dBBDu199 (antibody, human IgG1, V domains shown)
VH: QVQLVESGGGLVQPGRSLRLSCAASGFTFSNAWMHWVRQAPGKGLEWVAQIKDKQSGYNTYYAPSVKGRFTISRDDSKNSIYLQMNSLKTEDTAVYYCHYVHYASASTVLPAFGVDAWGQGTTVTVSS
VL: DIVMTQSPLSLPVTPGEPASISCRSSQSLVHSNRNTYLHWYQQKPGQAPRLLIYKVSNRFSGVPDRFSGSGSGTDFTLKISRVEAEDVGVYYCGQGTQVPYTFGQGTKLEIK
notes: as for B1
B15: dBBDu189 (antibody, human IgG1, V domains shown)
VH: QVQLVESGGGLVQPGRSLRLSCAASGFTFSNAWMHWVRQAPGKGLEWIAQIKDRSNQYATYYAPSVKGRFTISRDDSKNSIYLQMNSLKTEDTAVYYCHYVHYAQASSLLPSFGVDAWGQGTTVTVSS
VL: DIVMTQSPLSLPVTPGEPASISCRSSQSLVHSNRNTYLHWYQQKPGQAPRLLIYKVSNRFSGVPDRFSGSGSGTDFTLKISRVEAEDVGVYYCGQGTQVPYTFGQGTKLEIK
notes: as for B1

The binders below were run against T1, biotin-labeled human CD137 fused to human IgG1 Fc fragment (human, UniProt Q07011 24-186, biotin-labeled) (assay: bead ELISA, 1250 ng IgG, S/N over biotin-human Fc).
T1 construct: also called human CD137-Fc; biotin-human CD137-Fc; not shown: human IgG1 Fc fragment
T1 sequence (Q07011 24-186 limits assumed): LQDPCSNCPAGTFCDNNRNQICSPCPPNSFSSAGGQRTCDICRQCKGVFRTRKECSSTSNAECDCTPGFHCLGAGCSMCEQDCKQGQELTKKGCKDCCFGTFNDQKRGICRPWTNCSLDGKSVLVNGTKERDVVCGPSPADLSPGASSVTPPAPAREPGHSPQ
B1: binds.
B2: binds.
B3: binds.
B4: binds.
B5: binds.
B6: binds.
B7: binds.
B8: binds.
B9: binds.
B10: binds.
B11: binds.
B12: binds.
B13: binds.
B14: binds.
B15: binds.
